Assay results reported in the PETadex activity labels (doi:10.1128/aem.01704-22).

B1: unnamed (protein)
chain: MALYPSARWVLDRMAERGTRPFNEVPVERARQQFDAMMAGAPRPEVARTEDRTVPGPAGDIPVRIYWPQQQTLPLLLVYFHGGGWIMGSIESHDPTCRAIANVAGCIVVSVGYRLAPEHKFPEPLEDCYAAVRWAEENAASLGADPSLLAVGGDSAGGNLAAAVSLLARDRGGPRLAHQVLAYPVLSHGAAFPSYEENADGYFLTREMMLYCWRQYLRDEKDGDDPYASPLKASELSGLPTATIITAEHDPLRDEAEAYGVRLAQAGVPNYCLRYVGMIHGFLSLDNLLPPGRHALWSVATGLRLAATETHKRA
B2: unnamed (protein)
chain: MALDPGAAALLQQMAQAGVPPFNQMTVQQARQSMTGLAGTAPKYPVAKVEDRTIPGPAGQIPVRIYWPISGQKVGLVVYYHGGGWVICDLETHDGTCRQLANASDCIVMSVDYRLAPEHKFPAAVEDCYAAAAWAAENAATFGVDPSRLVVAGDSAGGNLAAVVALLAKERGGPRLAHQVLIYPVTDYSFDRPSYRENAEGYLLTRDAMEWFWRHYLNSDADGQNPLASPLRAPDLRGLPSATVITAEYDPLRDEGEAYAQRLMEAGVPTTCVRYLGQIHGFVTLEHVLPAGRQALLALGATIKGVLTGALGGQPAAA

Substrate: p-NP-C2
Assay: not given
Settings: pH 9; 30 °C

Protein	Km [µM]	kcat [s⁻¹]	kcat/Km [M⁻¹ s⁻¹]
B1	50	42	839000
B2	220	57.1	260000

Substrate: p-NP-C4
Assay: not given
Settings: pH 9; 30 °C

Protein	Km [µM]	kcat [s⁻¹]	kcat/Km [M⁻¹ s⁻¹]
B1	60	66.2	1.1e+06
B2	80	8.77	110000

Substrate: p-NP-C6
Assay: not given
Settings: pH 9; 30 °C

Protein	Km [µM]	kcat [s⁻¹]	kcat/Km [M⁻¹ s⁻¹]
B1	40	1.45	36200
B2	90	0.318	3530

Substrate: PET
Assay: Proxy for plastic degradation [Released monomer concentration (HPLC/LC-MS) (BHET)]
Settings: pH 8

Protein	Proxy for plastic degradation [mM]
B1	0.126
B2	0.075
